According to US20240067683A1, “USE OF MCM8-CGAS-STING-IFN-I SIGNAL PATHWAY AS DISEASE TARGET” (Guangzhou Women and Children's Medical Center, priority 2020, published 2024):
Positions count from the first letter of the chain named. Numbers in names are those of the source.

Legend:
[1] = system: MCM8; assay: TRIM21-mediated ubiquitination of MCM8; format: cell-based
[2] = system: MCM8; assay: Nuclear export of MCM8 detected by nuclear-cytoplasmic separation; format: cell-based
Experimental: The cells were treated with leptomycin B, a nuclear export inhibitor, to inhibit the protein shuttle out of the nucleus, and the expressions of MCM8 in the cytoplasm (cyto) and the nucleus (nuc) were respectively detected by nuclear-cytoplasmic separation. […] It could be seen that ubiquitination was essential for the nuclear export of MCM8. […] (see Panel f, FIG. 12).

[3] = system: IFN-I; assay: IFN-I in MCM8-knockdown THP-1 cells stimulated with SeV, with CsA or EtBr (mitochondrion-free p0 cells) treatment; format: cell-based, human; conditions: mitochondrion-free p0 THP-1 cells from EtBr treatment
Experimental: (§1) To further verify the mechanism of MCM8-cGAS-STING pathway, the inventors knocked down MCM8 in THP-1 cells, stimulated the cells with SeV, and then treated the cells with MTP complex pore inhibitor cyclosporine A (CsA) ([…]) to inhibit the release of mitochondrial DNA. […] The results were similar when the mitochondria in the cells were removed by EtBr treatment. The process was as follows: THP-1 cells were treated with EtBr to completely remove the mitochondrial DNAs in the cells to construct mitochondrion-free p0 cells, MCM8 was knocked down in normal THP-1 or p0 THP-1, the cells were then stimulated with SeV, the expressions of IFN-α and IFN-β were detected by Q-PCR, and the level of pIRF3 (IRF3 protein activated by phosphorylation) was detected by western blot. […] In Panel D, four columns are taken as a group and represent, from left to right, ctrl siRNA blank control group, MCM8 siRNA control group, ctrl siRNA group of mitochondrion-free cells, and MCM8 siRNA group of mitochondrion-free cells. […] On the contrary, drugs that inhibits or eliminats mtDNA can block the function of MCM8 in regulating IFN-I, and MCM8-knockdown activates cGAS-STING-IFN-I signaling pathway by increasing the amount of cytoplasmic mtDNA.

[4] = system: pIRF3; assay: pIRF3 level by western blot in normal or p0 THP-1 cells, MCM8 knockdown, SeV stimulation; format: cell-based, human; conditions: mitochondrion-free p0 THP-1 cells from EtBr treatment
Experimental: as §1

[5] = system: IFNα and IFNβ; assay: Expression of IFNα and IFNβ by Q-PCR in THP-1 cells treated with mitophagosome formation inhibitor Mdivi; format: cell-based, human; conditions: control THP-1 cells treated with Mdivi, with or without SeV or LPS; similar to MCM8 knockdown
[6] = system: mitochondrial DNA in cytoplasm; assay: Cytoplasmic DNA source by Q-PCR after nuclear-cytoplasmic separation in THP-1 cells; format: cell-based, human; conditions: control THP-1 cells treated with Mdivi, with or without SeV or LPS; similar to MCM8 knockdown
Description: Therefore, in order to explore whether DNA is produced in cytoplasm and the source, the inventors further knocked down MCM8 in THP-1 cells by transfection with MCM8-specific siRNA and stimulated the cells with SeV or poly(dA:dT). The stimulated cells were subjected to nuclear-cytoplasmic separation (Beyotime nuclear protein and cytoplasmic protein extraction kit was used for the nuclear-cytoplasmic separation herein, and the operation followed the instructions, the same below), and the cytoplasmic DNA was extracted for detecting the source of cytoplasmic DNA by qPCR.
Furthermore, the MCM8-knockdown THP-1 cells were stimulated or not stimulated with SeV and LPS, respectively, and treated with or without the mitophagosome formation inhibitor Mdivi, and the cytoplasmic DNA was extracted, and the content of mitochondrial DNA in cytoplasm and the expressions of IFNα and IFNβ were detected by Q-PCR.

[7] = system: LC3; assay: Binding of full-length, truncated and point-mutated MCM8 to LC3
Description: Proteins that directly bind to LC3 generally have a LIR motif, the inventors, when predicting with website whether MCM8 has a LIR motif, find that the sequence between the sites MCM8 272-277 is LIR motif. According to the functional domain of MCM8, the inventors constructed truncated mutants in various truncated forms of MCM8 and detected the results of the binding thereof to LC3.
By means of 3D structure prediction, the binding of MCM8 LIR motif to LC3 was simulated (see Panels C and D, FIG. 5).

[8] = biological target: T1, TRIM21 (Homo sapiens, UniProt P19474); assay: Co-immunoprecipitation of Flag-TRIM21 and HA-MCM8 in HeLa cells; format: binding
T1 construct: Flag; expressed in transfected cells; host or cells: HeLa
T1 sequence (P19474 whole entry): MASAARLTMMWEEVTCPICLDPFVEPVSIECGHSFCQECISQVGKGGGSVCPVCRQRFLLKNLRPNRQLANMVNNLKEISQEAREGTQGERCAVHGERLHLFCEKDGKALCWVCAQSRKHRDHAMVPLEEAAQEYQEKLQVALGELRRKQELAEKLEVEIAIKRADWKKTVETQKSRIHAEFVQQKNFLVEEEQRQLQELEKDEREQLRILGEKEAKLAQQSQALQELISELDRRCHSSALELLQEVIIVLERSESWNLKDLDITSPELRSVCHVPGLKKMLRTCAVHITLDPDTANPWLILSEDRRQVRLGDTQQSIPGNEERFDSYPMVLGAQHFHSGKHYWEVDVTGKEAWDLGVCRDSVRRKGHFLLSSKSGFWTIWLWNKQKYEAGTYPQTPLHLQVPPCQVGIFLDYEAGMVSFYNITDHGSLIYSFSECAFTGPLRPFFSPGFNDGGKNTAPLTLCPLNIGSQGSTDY
Description: Further, HeLa cells were transfected with Flag-TRIM21 and HA-MCM8 and subjected to co-immunoprecipitation analysis.

[9] = system: IFN-β; assay: IFN-β mRNA level by Q-PCR in 293T cells overexpressing MCM8 or its mutants, stimulated with poly(dA:dT); format: cell-based; conditions: 200 ng overexpressed
Experimental: Besides the previously found A276P and S365N mutations, the inventors found other point mutations related to Kawasaki disease, namely, S280C mutation and S764A mutation, and further conducted cloning and cell experiments, comprising the steps of using 293T cells to separately overexpress 200 ng MCM8, and each of mutants, namely, MCM8 (A276P), MCM8 (S280C), MCM8 (S365N) and MCM8 (S764A); and 24 hours after transfection, stimulating the cells with poly(dA:dT) for 0, 12 and 24 h, collecting RNA, and detecting the mRNA level of IFN-β by Q-PCR. […] Therefore, it can be further considered that the previously found mutations A276P and S365N in MCM8 are both mutation factors that affect the function of MCM8 in regulating IFN-I and lead to Kawasaki disease, while the mutations S280C and S764A are also newly discovered mutations in systemic vasculitis such as Kawasaki disease. These two mutations may be used to diagnose or assist in the diagnosis of Kawasaki disease and systemic vasculitis diseases similar to Kawasaki disease (e.g., systemic lupus erythematosus).

[10] = system: mitochondrial LC3; assay: Western blot of mitochondrial LC3 and mitochondrial proteins in Hela cells overexpressing MCM8; format: cell-based; conditions: with or without LPS or SeV, vs EV control
Description: Based on the findings in Embodiment 6, MCM8 is related to the amount of cytoplasmic mtDNA and cGAS-STING-IFN-I signaling pathway, while the amount of mtDNA is related to mitophagy, and therefore, the experiment was further carried out as follows. Experiment of MCM8-knockdown inhibiting mitophagy-related proteins: in MCM8-knockdown THP-1 cells, detection indicators related to mitophagy were studied. The cells were stimulated or not stimulated with LPS and SeV, respectively, and the expressions of mitochondrial LC3 and other mitochondrial proteins TOM20, MFN2, PINK1 and COXIV were detected by western blot. It was found from the results that, compared with the control group (Ctrl siRNA), MCM8-knockdown could inhibit the activation of mitochondrial LC3 and increase the amounts of mitochondrial proteins (TOM20, MFN2, PINK1, and COXIV) (see Panel A, FIG. 4). Correspondingly, MCM8 (Flag-MCM8) was overexpressed in Hela cells, the cells were stimulated or not stimulated with LPS and SeV, respectively, and the expressions of mitochondrial LC3 and other mitochondrial proteins (TOM20, MFN2, PINK1, and COXIV) were detected by western blot.

[11] = stimulation with LPS and poly(dA:dT)

CC(=N)NCc1cccc(CN)c1 [1400W]
ubiquitination of MCM8 mediated by TRIM21 [1]: significantly inhibited | nuclear export of MCM8 [2, 11]: inhibited

CC[n+]1c(-c2ccccc2)c2cc(N)ccc2c2ccc(N)cc21.[Br-] [EtBr]
function of MCM8 in regulating IFN-I (IFN-α and IFN-β expression, Q-PCR) [3]: blocked | expression of pIRF3 protein [4]: significantly inhibited

COc1cc(-n2c(=S)[nH]c3ccccc3c2=O)c(Cl)cc1Cl [Mdivi]
expression levels of IFNα and IFNβ [5]: increase in the expression levels of IFNα and IFNβ | mtDNA aggregation in cytoplasm (Q-PCR) [6]: mtDNA aggregation

NS(=O)(=O)OC[C@H]1C[C@@H](Nc2ccnc3cc(-c4cccc(SC(F)(F)F)c4)nn23)[C@H](O)[C@@H]1O [TAK-243]
nuclear export of MCM8 [2, 11]: obviously inhibited

CCC(=C/[C@H](C)C/C=C/C(C)=C/[C@@H](C)C(=O)[C@@H](C)[C@H](O)[C@@H](C)C/C(C)=C/C(=O)O)/C=C/[C@@H]1OC(=O)C=C[C@@H]1C [leptomycin B]
nuclear export of MCM8 ([2]; stimulation with SeV and LPS): significantly inhibited

B1: MCM8: Full-length MCM8 protein (SEQ ID NO: 2), overexpressed in cells (protein, listed as Homo sapiens)
chain: MNGEYRGRGFGRGRFQSWKRGRGGGNFSGKWREREHRPDLSKTTGKRTSEQTPQFLLSTKTPQSMQSTLDRFIPYKGWKLYFSEVYSDSSPLIEKIQAFEKFFTRHIDLYDKDEIERKGSILVDFKELTEGGEVTNLIPDIATELRDAPEKTLACMGLAIHQVLTKDLERHAAELQAQEGLSNDGETMVNVPHIHARVYNYEPLTQLKNVRANYYGKYIALRGTVVRVSNIKPLCTKMAFLCAACGEIQSFPLPDGKYSLPTKCPVPVCRGRSFTALRSSPLTVTMDWQSIKIQELMSDDQREAGRIPRTIECELVHDLVDSCVPGDTVTITGIVKVSNAEEGSRNKNDKCMFLLYIEANSISNSKGQKTKSSEDGCKHGMLMEFSLKDLYAIQEIQAEENLFKLIVNSLCPVIFGHELVKAGLALALFGGSQKYADDKNRIPIRGDPHILVVGDPGLGKSQMLQAACNVAPRGVYVCGNTTTTSGLTVTLSKDSSSGDFALEAGALVLGDQGICGIDEFDKMGNQHQALLEAMEQQSISLAKAGVVCSLPARTSIIAAANPVGGHYNKAKTVSENLKMGSALLSRFDLVFILLDTPNEHHDHLLSEHVIAIRAGKQRTISSATVARMNSQDSNTSVLEVVSEKPLSERLKVVPGETIDPIPHQLLRKYIGYARQYVYPRLSTEAARVLQDFYLELRKQSQRLNSSPITTRQLESLIRLTEARARLELREEATKEDAEDIVEIMKYSMLGTYSDEFGNLDFERSQHGSGMSNRSTAKRFISALNNVAERTYNNIFQFHQLRQIAKELNIQVADFENFIGSLNDQGYLLKKGPKVYQLQTM
modifications: Flag or HA tag
direct binding to LC3 ([7]; mass spectrometry experiments): could directly bind to LC3 | binding to TRIM21 upon stimulation ([8]; LPS or poly(dA:dT)): the binding increased | binding to E3 ubiquitin ligase TRIM21 ([8]; co-immunoprecipitation): could bind | IFN-β level (mRNA, Q-PCR) ([9]; poly(dA:dT) 0 h): 0 | IFN-β level (mRNA, Q-PCR) ([9]; poly(dA:dT) 12 h): 100 | IFN-β level (mRNA, Q-PCR) ([9]; poly(dA:dT) 24 h): 250 | activation of LC3 [10]: promoted the activation of LC3 more obviously | mitochondrial proteins (TOM20, MFN2, PINK1, COXIV) [10]: inhibited the increase of mitochondrial proteins

B2: MCM8 (S280C): MCM8 with point mutation S280C (protein, listed as Homo sapiens)
chain: B1 chain with S280C
IFN-β level (mRNA, Q-PCR) ([9]; poly(dA:dT) 24 h): below 250

B3: MCM8 (A276P): MCM8 with point mutation A276P in the LIR motif, found in Kawasaki disease patients (protein)
chain: B1 chain with A276P
binding to LC3 ([7]; MCM8 constructs with or without LIR motif): greatly reduced
